Data as given in the supplement of paper PMC9170038.

Tested on: MS2 coat protein
Test: apparent KD of MS2 coat protein; higher = weaker reporter binding
Details: Eterna round: R107
Protocol: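 RNA-MaP round R107: designed RNA switches with theophylline, tryptophan, arginine or FMN aptamers are transcribed on-chip within common flanks. They are titrated with SNAP-549-labelled MS2 coat protein in RNA-MaP buffer (100 mM Tris pH 7.5, 80 mM KCl, 4 mM MgCl2), without ligand or with the indicated ligand. Median apparent KD per design.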

[1] = input ligand: theophylline 20 uM
[2] = input ligand: theophylline 2 mM
[3] = input ligand: tryptophan 2.4 mM

Sequence | apparent KD of MS2 coat protein (input ligand: arginine 13.2 mM) [nM] | apparent KD of MS2 coat protein (input ligand: none) [nM] | apparent KD of MS2 coat protein [1] [nM] | apparent KD of MS2 coat protein [2] [nM] | apparent KD of MS2 coat protein [3] [nM]
AGAAUGUAAUAUGGCAAAGUUAUAACCGAAGGAGCGCCGAAUAAGGCAGGUAGGUCGCGGAAACAUGAGGAUCACCCAUGUCCAU [Arginine A Same State; Euphoria Solution 3] | 18.1 | 17.3 | 19 | 14.4 | 18
AGACAUGAGGAUCACCCAUGUAGUACGGAUACCAGAUCCAGAUGCGUCCCUUGGCAGCUGUAGUACAGCGUUACAUCGCUCAUAG [Exclusion - Theophylline A (Freestyle 25)] | 21 |  | 44 |  | 36.4
AGACAUGAGGAUCACCCAUGUAGUAUGGAUACCAGAUGUAGAUUAGUCCCUUGGCAGCUGUGGUGAAGUGAUGCAUUGCUCCUAG [Exclusion - Theophylline A (Freestyle 1)] | 19.5 |  | 36.4 |  | 23.2
AGAUGAGUCACGGCCGCCACUCUUAUCAGGAUCACCCAUGGUUGACAUGAGGAUCACCCAUGUAUGAGGACCGGGUGAUGAGCAU [XTryp B #1] | 13.7 |  | 15.9 | 15 | 
AGAUGUAGCGGAAGGAGCGUCAUGAGGAUCACCCAUGGCUCCCGUUGUGGGAGUUCCUUAGGUCAGGUAGGUCGCCGUUACGUCA [Omei Arg B SS B v6] | 79.7 | 359 | 187 | 254 | 137
AGAUUCGACACGGCCGCCACUUGUGGUGGAUUAUCCAGUGUCGAACAUGAGGAUCACCCAUGUACAAGGACCGGGUGUUGAGUCU [XTryp B #19] | 53.3 |  | 79.3 | 96.3 | 
AGCAACAAGUCGGCCGCCACUCAUUUAACAUGAGGAUCACCCAUGUGAAUAACAUGAUUGUAAUAGAGGACCGGGACAGUUGCAU [JR_SSTryptoB_Sub014] | 62.1 |  | 85.5 | 103 | 
AGCACUGUGACGGCCGCCACUAUAUUAGGGUGGUAGGGUUCAUAAAUACAUGAGGAUCACCCAUGUAGGACCGGGUCUCAGUGCA [Omei Trp Exc B A v1] | 11.6 | 12.1 | 15.9 | 10 | 21.2
AGCCACUCGAGUGAUCCUCACGAGUGGCUACGAGGACCGGUACGGCCGCCACUCGAAUCAACAUGAGGAUCACCCAUGUAAUAAU [Brourdmod02] | 20.5 | 202 | 159 | 802 | 54.8
AGCCCUGUGCUAGAUACCAGCUACAUGAGGAUCACCCAUGUGCGUCAAGACUGACUGUGUAGCCCUUGGCAGCUACUCGCAUGUA [Exclusion - Theophylline B (Freestyle 4)] | 11.9 |  | 19 |  | 12.5
AGCGACAUGCGUGAUACCAGCUACAUGAGGAUCACCCAUGUCAGUAGGAAACUGCUGUGUAGCCCUUGGCAGCACAGUGCAUGUC [Exclusion - Theophylline B (Freestyle 27)] | 36 |  | 47.5 |  | 36.4
AGCUCGCAUCCUCUAGCGUCAAAGACGCCUCGAGGACCGGUACGGCCGCCACUCGAUAUGAGGAUCACCCAUAUCAAAGCGAGCA [TrypAX 2 #SwitchBubble #AlternativeMS2 #MS2Late #CuTurnoff] | 32.7 | 53.8 | 59.5 | 75.5 | 581
AGGACGGCCGGAAGGAGCGGUACAUGAGGAUCACCCAUGUACCUCUGGGCAUCCGUAGUGUGCCAGGUAGGUCGCCGGUUGCGGG [Veatgema] | 11.1 | 9.88 | 14.5 | 12.1 | 10.8
AGGGAACAUGAGGAUCACCCAUGUGCCGAUACCAGUGAUUUUCAGCACCCUUGGCAGCGGAACCUUUGUUAUAUUAUUCUUAGGG [theeternabot_sameState_MS2_Theo_A_25] | 32.5 |  | 42.4 |  | 41.2
AGGUACGGAAUCCUCAUGUAGUCGUACCAACGAGGACCGGUACGGCCGCCACUCGAAUAAACAUGAGGAUCACCCAUGUAAUAAU [T''-M-T'-T-MS2] | 17.6 |  | 97.3 | 90.1 | 
AGUACAUGAGGAUCACCCAUGUAUCGGUACCGAGGACCGGUACGGCCGCCACUCGCAGGACAUGAGGAUCACCCAUGUGCAGCCG [SSTA DOUBLE!!! :-D #10] | 19.2 | 36.8 | 40.9 | 43.8 | 35
AGUCUAUGAAGAGAUACCAGUGAGAGACAUAGACAUGAGGAUCACCCAUGUGACAUGAAGCACCCUUGGCAGCUCAACGAGCUCA [Theo B SS t1] | 31.4 |  | 50 |  | 39
AGUCUUGAACGAAGGAGCGACGUACAUGAGGAUCACCCAUGUGGGAGCGAAAGCUCCUAACGUCAGGUAGGUCGCGUUCGAGACA [Omei Arginine B SS A v1] | 17.7 | 16.7 | 21.9 | 16.2 | 18.6

Sequence | apparent KD of MS2 coat protein (input ligand: arginine 13.2 mM) [nM] | apparent KD of MS2 coat protein (input ligand: none) [nM] | apparent KD of MS2 coat protein [1] [nM] | apparent KD of MS2 coat protein [2] [nM] | apparent KD of MS2 coat protein [3] [nM]
AGUGUUAUAACUGAUACCAGACCUUUGCUUAUACAUGAGGAUCACCCAUGUAAAAUGGCGGUCCCUUGGCAGCAGAGAAUACACA [#08 Same State - Theophylline B] | 30.2 |  | 32.9 |  | 36.3
AGUGUUAUAACUGAUACCAGACUCUCAUGUUUACAUGAGGAUCACCCAUGUUAUUUCUUUGUCCCUUGGCAGCAGAAUUUACACA [JR_SSTheophyB_Sub009] | 142 |  | 298 |  | 343
AGUGUUAUAACUGAUACCAGACUUGCGCUUAAACAUGAGGAUCACCCAUGUAAAAUGGUUGUCCCUUGGCAGCAGAAAAUACACA [JR_SSTheophyB_Sub006] | 53.2 |  | 98 |  | 98.4
AUAACAUGAGGAUCACCCAUGUAAGCAGAUACCAGCUAGGAAACUAGCCCUUGGCAGCUGCAAGGUGAUCCUAAUGCAGCUGCAA [(M1)-(M2)-(T1)-(T2)-(M)'-(T)'_Design3] | 61.9 |  | 241 |  | 158
AUAACAUGAGGAUCACCCAUGUAAGCAGAUACCAGCUAGGAAACUAGCCCUUGGCAGCUGCAUUCCUCAUGUAGGUAUCUGCUAA [(M1)-(M2)-(T1)-(T2)-(M)'-(T)'_Design4] | 18.4 |  | 22.1 |  | 16.1
AUAACAUGAGGAUCACCCAUGUAGAGUGAUACCAGACUACGUAAUGUCCCUUGGCAGCACAAGUAAAGUUACGAAUAAUGAUAGA [JR_SSTheophyA_Sub002] | 113 |  | 146 |  | 137
AUAACAUGAGGAUCACCCAUGUAUUGGUUACGAGGACCGGUACGGCCGCCACUCGUAUUUUGGUGGUAUUUUGUAUAUAUGAUAA [JR_SSTryptoA_Sub018] | 26.6 |  | 32.3 | 36.5 | 
AUAAUAAAGACGGCCGCCACUAUAAACAUGAGGAACAUGAGGAUCACCCAUGUAUGAGGAUCACCUAGGACCGGGUCAAAUAUUA [AstrosExyTryB#3] | 36 | 49.4 | 70.1 | 45.9 | 44.7
AUAAUAAUACAUGAGGAUCACCCAUGUAUGCGAGGACCGGUACGGCCGCCACUCGACCUCAUGCAUACAUGAGGAUCACCCAUGU [Same State Tryptophan A 4] | 18.4 |  | 55.8 | 67.2 | 
AUACACCUCGUCCAGGCAAUCUUUAGUGAUACCAGCUAACUCCGUGGCCCUUGGCAGCACAUGAGGAUCACCCAUGUGCGACAUC [Bioninen] | 10.2 |  | 13.4 |  | 11.6
AUACAUGAGGAUCACCCAUGUCAUACAGAAGGAGCGUCACAUAAGACAGGUAGGUCGCUGAUAUAUACGUCACGAAUAGUGACGA [JR_SSArginiA_Sub017] | 16.8 | 18.6 | 23.5 | 20.4 | 18.6
AUACGGCGGUAAAAUCAGAGAGUAAAAGAUACCAGCAAUAAUAAAUGCCCUUGGCAGCUUCUGACAUGAGGAUCACCCAUGUAAA [theeternabot_exclusion_MS2_Theo_A_49] | 15.7 |  | 18 |  | 15
AUCGUACCUGAUGAUACCAGCAAUUGCUCGUAACAUGAGGAUCACCCAUGUGACCAGUGAUGCCCUUGGCAGCAUGAUCGGUGCA [Same State - Theophylline B (Freestyle 20)] | 45.7 |  | 48.9 |  | 45.8
AUCGUACCUGAUGAUACCAGCAAUUGCUCGUAACAUGAGGAUCACCCAUGUGACCAGUGAUGCCCUUGGCAGCAUGGUCGGUGCA [Same State - Theophylline B (Freestyle 21)] | 59.5 |  | 190 |  | 150
AUCUCAUAGAGUGAUACCAGACUACAUGAGGAUCACCCAUGUUACAUUUAAAUAUCAUUUGUCCCUUGGCAGCACAUGAAGUACA [JR_Nu_ExcTheophyB_Sub018] | 22.9 |  | 37.3 |  | 27.6
AUGCAUAUCAGAAGGAGCGUCUUUAACAUGAGGAUCACCCAUGUAACAUUGAAUUCGAUGAGACAGGUAGGUCGCUGAAUAGUAA [SS-ArgB24] | 27.5 | 33.7 | 39.3 | 32.8 | 31.2
AUGGUAAGAACAUGAGGAUCACCCAUGUGACGAGGACCGGUACGGCCGCCACUCGUACCUUAGUCGUCGAACAGAGGAUUCAUGU [Trypt A-MS2@10] | 37.1 |  | 138 | 125 | 
AUGUAAGUGGUGUCACUGUGGUCUAGUGAUACCAGUAUCGAAAGAUACCCUUGGCAGCGCUAGAACAUGAGGAUCACCCAUGUUU [#24 Exclusion-TheophyllineA] | 34.8 |  | 74.8 |  | 58.3
